Data on three molecules can be found in article PMC3788043 (Journal of the American Society for Mass Spectrometry, 2013).

Data set [1] concerns the target urease apoprotein (UreABC)3 (Klebsiella aerogenes, UniProt P18316 1-100; P18315 1-106; P18314 1-567). Nature of the data set: native MS.
The data set “cross-linking” deals with the molecule itself. Description: cross-linking.

Changes are numbered by the printed parent chain. Numbers in names are those of the source.

Sequence of urease apoprotein (UreABC)3 (P18316 whole entry, chain 1 of 3): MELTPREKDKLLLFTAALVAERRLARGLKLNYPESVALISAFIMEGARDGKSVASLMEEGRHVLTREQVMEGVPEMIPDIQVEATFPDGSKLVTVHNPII
Sequence of urease apoprotein (UreABC)3 (P18315 whole entry, chain 2 of 3): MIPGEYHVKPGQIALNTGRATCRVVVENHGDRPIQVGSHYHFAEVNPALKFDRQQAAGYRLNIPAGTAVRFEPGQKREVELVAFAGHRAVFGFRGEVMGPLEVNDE
Sequence of urease apoprotein (UreABC)3 (P18314 whole entry, chain 3 of 3): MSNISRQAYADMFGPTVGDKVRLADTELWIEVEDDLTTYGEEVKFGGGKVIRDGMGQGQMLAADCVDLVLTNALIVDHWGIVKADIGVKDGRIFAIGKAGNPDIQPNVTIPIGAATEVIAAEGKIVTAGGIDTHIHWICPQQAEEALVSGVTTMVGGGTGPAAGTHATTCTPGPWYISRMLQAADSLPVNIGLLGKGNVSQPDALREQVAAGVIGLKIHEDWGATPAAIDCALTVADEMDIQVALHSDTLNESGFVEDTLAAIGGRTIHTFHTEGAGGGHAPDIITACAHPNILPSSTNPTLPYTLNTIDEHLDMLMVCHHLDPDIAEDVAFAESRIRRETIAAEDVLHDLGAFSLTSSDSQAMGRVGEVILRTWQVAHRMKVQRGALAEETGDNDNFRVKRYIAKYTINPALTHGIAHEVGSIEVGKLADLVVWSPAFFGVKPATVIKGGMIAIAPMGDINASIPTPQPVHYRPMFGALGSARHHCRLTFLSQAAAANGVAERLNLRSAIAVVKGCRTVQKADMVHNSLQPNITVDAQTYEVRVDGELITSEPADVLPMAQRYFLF

B1: maltose binding protein fusion of UreD (MBP-UreD) (natural protein, Klebsiella aerogenes, UniProt Q09063 1-270, looked up)
chain: MLPPLKKGWQATLDLRFHQAGGKTVLASAQHVGPLTVQRPFYPEEETCHLYLLHPPGGIVGGDELTISAHLAPGCHTLITMPGASKFYRSSGAQALVRQQLTLAPQATLEWLPQDAIFFPGANARLFTTFHLCASSRLLAWDLLCLGRPVIGETFSHGTLSNRLEVWVDNEPLLVERLHLQEGELSSIAERPWVGTLLCYPATDALLDGVRDALAPLGLYAGASLTDRLLTVRFLSDDNLICQRVMRDVWQFLRPHLTGKSPVLPRIWLT
On to B1, for which the binding result in data set [1] was “binds”.

B2: MBP-UreD:UreF (complex, Klebsiella aerogenes)
chain 1: B1 chain
chain 2: MSTAEQRLRLMQLASSNLPVGGYSWSQGLEWAVEAGWVLDVAAFERWQRRQMTEGFFTVDLPLFARLYRACEQGDIAAAQRWTAYLLACRETRELREEERNRGAAFARLLSDWQPDCPPPWRSLCQQSQLAGMAWLGVRWRIALPEMALSLGYSWIESAVMAGVKLVPFGQQAAQQLILRLCDHYAAEMPRALAAPDGDIGSATPLAAIASARHETQYSRLFRS
B2: the binding result in data set [1] is on record as “binds”.

B3: K165A variant of UreF (natural protein)
chain: B2 chain 2 with K165A
B3: in “cross-linking”, the binding result is “binds”.
